This series concerns MS2 coat protein. Nature of the series: apparent KD of MS2 coat protein; higher = weaker reporter binding. Conditions: Eterna round: R107. In outline: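 Apparent KD stands for the median, per design, of fits to normalised cluster binding curves. The curves came from titrating on-chip-transcribed RNA switches on Illumina sequencing clusters with SNAP-549-labelled MS2 coat protein, twofold from 0.7 or 1.5 nM to 3 µM. Buffer was 100 mM Tris-HCl pH 7.5, 80 mM KCl, 4 mM MgCl2, without or with constant ligand.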

[1] abbreviates: input ligand: theophylline 20 uM.
[2] abbreviates: input ligand: tryptophan 2.4 mM.
The mark [3] stands for this setting: input ligand: theophylline 2 mM.

This note sets out measurements from the supplement of paper PMC9170038.

With “GAAGAGAGGAUACCGUUUGUAUACAACGAUACCAGUGGUAUGUAUCACCCUUGGCAGCGUGAGACAUGAGGAUCACCCAUGUGGC [theeternabot_exclusion_MS2_Theo_A_46]”, the “apparent KD of MS2 coat protein” value stood at 14.3 nM (input ligand: arginine 13.2 mM), 26.1 nM under setting [1] and 18.4 nM under setting [2].

Turning to “GCGUUCUCUGCGGCCGCCACUCAAGGAGCUACAUAGCUCCUAGACAUGAGGAUCACCCAUGUCGCGAGGACCGGGUAGAUCCUUA [Same State Typptophan B GF8]”, the “apparent KD of MS2 coat protein” value is, setting by setting: (input ligand: arginine 13.2 mM) 116 nM; (input ligand: none) 159 nM; under setting [1], 288 nM; under setting [3], 360 nM; under setting [2], 120 nM.

“ACAUGAGGAUCACCCAUGUGAAGCAGGGUACGAGGACCGGUACGGCCGCCACUCGAACAUUAUAACGAGUGAAUGGCAACGAUGU [B15Jan]”: the “apparent KD of MS2 coat protein” value by setting is: (input ligand: arginine 13.2 mM) 15.7 nM; under setting [1], 18.5 nM; under setting [3], 13.8 nM.

In the case of “UUGCAUAUCUUGGAUACCAGCACAUGAGGAUCACCCAUGUCCGCGGGAUAGCUCCAGAUGUGCCCUUGGCAGCCACAUGCACUUG [Quinzama]”, the “apparent KD of MS2 coat protein” value was determined as 10.9 nM (input ligand: arginine 13.2 mM), 18.4 nM under setting [1] and 10.7 nM under setting [2].

In the case of “ACAUGAGGAUCACCCAUGUAAAUAGCGGAAGGAGCGUGCAAAAGCACAGGUAGGUCGCCGAUAUAAUAAUUGGGUAAUAUAUUAU [#27 Exclusion - Arginine A]”, the “apparent KD of MS2 coat protein” value is, setting by setting: (input ligand: arginine 13.2 mM) 17.7 nM; (input ligand: none) 39.1 nM; under setting [1], 24.6 nM; under setting [3], 26.2 nM; under setting [2], 26.9 nM.

“ACAUCCAGAUUAAUCGUGGGCAUACUCGAUACCAGUAUUUUAACCUACCCUUGGCAGCGACAUGAGGAUCACCCAUGUGAGAUGA [XTheo A #10]”: the “apparent KD of MS2 coat protein” value is, setting by setting: (input ligand: arginine 13.2 mM) 21.4 nM; under setting [1], 25.2 nM; under setting [2], 23.8 nM.

Take “CCGUCACAUGAGGAUCACCCAUGUGCGGAAGGAGCGGACGAAAGUCCAGGUAGGUCGCCGUAUAGCCAAUGACCAGCAGUGUCGG [XARG-A 21]”: the “apparent KD of MS2 coat protein” value runs as follows: (input ligand: arginine 13.2 mM) 12.1 nM; (input ligand: none) 12.6 nM; under setting [1], 15.4 nM; under setting [3], 14.8 nM; under setting [2], 14.4 nM.

As to “UGUACCAUGUCGGCCGCCACUCAUGAUAAACCUGAGGAUCACCCUGGUAGCGUCAAAGACGCUAUGAGGACCGGGACAUGGUACU [TryBS Zipper 2]”, the “apparent KD of MS2 coat protein” value (input ligand: arginine 13.2 mM) came to 29.7 nM; the “apparent KD of MS2 coat protein” value (input ligand: none) was determined as 24.4 nM; the “apparent KD of MS2 coat protein” value under setting [1] was 35.2 nM; the “apparent KD of MS2 coat protein” value under setting [3] was determined as 33 nM; the “apparent KD of MS2 coat protein” value under setting [2] was 20.5 nM.

With “GCGUUGGCCACGGCCGCCACUCAGGUACCGCGCGUAGUGAACUUACAUGAGGAUCACCCAUGUCUGAGGACCGGGUGGCCGCCAC [theeternabot_sameState_MS2_Trp_B_27]”, the “apparent KD of MS2 coat protein” value turned out to be 31.7 nM (input ligand: arginine 13.2 mM), 70.3 nM under setting [1] and 46.1 nM under setting [3].

In the case of “AUUCAUGGAAACAUGACAUAGGGAUCUAGCCGAGGACCGGUACGGCCGCCACUCGCUUGGAGGCACAUGAGGAUCACCCAUGUUA [SS Tryp A #6]”, the “apparent KD of MS2 coat protein” value reads like this: (input ligand: arginine 13.2 mM) 42.3 nM; under setting [1], 140 nM; under setting [3], 140 nM.

As for “GGUGUUACGUCGGCCGCCACUAUACUACAUGAGGAUCACCCAUGUCAUCCCUUCAAUUGGUAGCCUAGGACCGGGACAGAAUUCG [theeternabot_exclusion_MS2_Trp_B_8]”, the “apparent KD of MS2 coat protein” value runs as follows: (input ligand: arginine 13.2 mM) 33.2 nM; under setting [1], 55.2 nM; under setting [3], 43.8 nM.

In the case of “UAAAAUAUCUGGGUGUAGGUAAUAACAGAUACCAGCCAGAUAACUGGCCCUUGGCAGCUGAAAACAUGAGGAUCACCCAUGUAAA [TheoAS 22 #OpenEnded #Ms2Late]”, the “apparent KD of MS2 coat protein” value (input ligand: arginine 13.2 mM) stood at 28.1 nM; the “apparent KD of MS2 coat protein” value (input ligand: none) is 30.7 nM; the “apparent KD of MS2 coat protein” value under setting [1] amounted to 50.3 nM; the “apparent KD of MS2 coat protein” value under setting [3] was 236 nM; the “apparent KD of MS2 coat protein” value under setting [2] turned out to be 28.6 nM.

Turning to “CCGACAUGAGGAUCACCCAUGUGAACAGAUACCAGUCUGGUAAUAGACCCUUGGCAGCUGAACCAGGAAACUAUGGUGAUCCUGG [Theo A SS t3]”, the “apparent KD of MS2 coat protein” value is 66 nM (input ligand: arginine 13.2 mM); 69.8 nM (input ligand: none); 89.5 nM under setting [1]; 187 nM under setting [3]; 83.6 nM under setting [2].

With “AUAAGUAAUGUCUCGUGUAUUAUUACAGAUACCAGACUAUCCUAUGUCCCUUGGCAGCUGGAUUACAUGAGGAUCACCCAUGUGG [#11 Exclusion-TheophyllineA]”, the “apparent KD of MS2 coat protein” value came out at 37.6 nM (input ligand: arginine 13.2 mM), 49.5 nM under setting [1] and 42 nM under setting [2].

In the case of “GUUUUAUACUCGGCCGCCACUGAGAGAGUCAUGUAAACAUGAGGAUCACCCAUGUAAUAUAUAUACAGGACCGGGAGUAGGGUAA [4.F]”, the “apparent KD of MS2 coat protein” value reads like this: (input ligand: arginine 13.2 mM) 10.1 nM; under setting [1], 16.1 nM; under setting [3], 12.2 nM.

In the case of “UCUACAUGAGGAUCACCCAUGUGCCAUGAUACCAGACAUGAAAAUGUCCCUUGGCAGCGUGGGUAGCGCAUCCGAAAGGAUGCGC [#08 SameState-TheophyllineA]”, the “apparent KD of MS2 coat protein” value is, setting by setting: (input ligand: arginine 13.2 mM) 1370 nM; (input ligand: none) 702 nM; under setting [1], 240 nM; under setting [3], 1310 nM; under setting [2], 20.5 nM.

In the case of “GGAUAGGACAGAAGGAGCGACAUGAGGAUCACCCAUGUCUACUACGUCGAAAGACGCUCAUGUCAGGUAGGUCGCUGUCCUAUCG [#28 Exclusion - Arginine B]”, the “apparent KD of MS2 coat protein” value reads like this: (input ligand: arginine 13.2 mM) 70.9 nM; (input ligand: none) 241 nM; under setting [1], 263 nM; under setting [3], 458 nM; under setting [2], 250 nM.

As to “AUCAGUAGAACUGAUACCAGUCAAAGGCUUUGACCUCAUAACAUGAGGAUCACCCAUGUUGACCCUUGGCAGCAGUAGGCAAGGG [Theo B Ex t4]”, the “apparent KD of MS2 coat protein” value by setting is: (input ligand: arginine 13.2 mM) 22.5 nM; under setting [1], 28.9 nM; under setting [2], 25.4 nM.
